{
  "source": "patent US20220135701A1",
  "about": "(Genentech, published 2022)",
  "key": {"[1]": {"molecular_target": "T1, human MerTK (human, UniProt Q12866 26-499)", "T1 construct": "also called HuMER", "T1 sequence": "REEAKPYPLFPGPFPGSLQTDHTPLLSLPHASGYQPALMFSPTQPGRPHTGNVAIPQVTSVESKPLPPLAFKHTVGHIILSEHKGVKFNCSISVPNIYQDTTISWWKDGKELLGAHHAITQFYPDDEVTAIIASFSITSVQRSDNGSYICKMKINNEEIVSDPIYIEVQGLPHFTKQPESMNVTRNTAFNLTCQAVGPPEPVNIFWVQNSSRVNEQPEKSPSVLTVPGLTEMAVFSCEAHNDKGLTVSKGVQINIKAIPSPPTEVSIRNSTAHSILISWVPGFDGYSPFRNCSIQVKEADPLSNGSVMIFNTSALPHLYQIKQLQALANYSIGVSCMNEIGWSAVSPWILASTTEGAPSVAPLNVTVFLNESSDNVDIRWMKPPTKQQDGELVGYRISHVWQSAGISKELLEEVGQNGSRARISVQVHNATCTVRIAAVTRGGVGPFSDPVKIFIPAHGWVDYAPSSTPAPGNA", "test": "SPR BIAcore T200, Ab captured, 37C", "procedure": "Each rabbit and humanized antibody was subjected to a binding assay to determine its affinity to MerTK derived from various species.\nAll binding affinity determinations were obtained using Surface Plasmon Resonance (SPR) measurements from a BIAcore™-T200 instrument. Briefly, each rabbit or humanized antibody was captured to achieve approximately 100 RU (Response Units). Then, 3-fold serial dilutions of MerTK from various species (0.4 nM to 100 nM) diluted in HBS-EP buffer (0.01M HEPES pH 7.4, 0.15M NaCl, 3 mM EDTA and 0.05% v/v surfactant P20) was injected into the BIAcore™-T200 instrument at 25° C. or 37° C. with a flow rate of 30 μl/min. Association rates (kₒₙ) and dissociation rates (koff) were calculated using a simple one-to-one Langmuir binding model (BIAcore T200 evaluation software version 2.0). The equilibrium dissociation constant (KD) was calculated as the ratio koff/kₒₙ."}, "[2]": {"molecular_target": "T2, mouse MerTK on mouse macrophages (mouse, UniProt Q60805 19-994)", "T2 sequence (looked up)": "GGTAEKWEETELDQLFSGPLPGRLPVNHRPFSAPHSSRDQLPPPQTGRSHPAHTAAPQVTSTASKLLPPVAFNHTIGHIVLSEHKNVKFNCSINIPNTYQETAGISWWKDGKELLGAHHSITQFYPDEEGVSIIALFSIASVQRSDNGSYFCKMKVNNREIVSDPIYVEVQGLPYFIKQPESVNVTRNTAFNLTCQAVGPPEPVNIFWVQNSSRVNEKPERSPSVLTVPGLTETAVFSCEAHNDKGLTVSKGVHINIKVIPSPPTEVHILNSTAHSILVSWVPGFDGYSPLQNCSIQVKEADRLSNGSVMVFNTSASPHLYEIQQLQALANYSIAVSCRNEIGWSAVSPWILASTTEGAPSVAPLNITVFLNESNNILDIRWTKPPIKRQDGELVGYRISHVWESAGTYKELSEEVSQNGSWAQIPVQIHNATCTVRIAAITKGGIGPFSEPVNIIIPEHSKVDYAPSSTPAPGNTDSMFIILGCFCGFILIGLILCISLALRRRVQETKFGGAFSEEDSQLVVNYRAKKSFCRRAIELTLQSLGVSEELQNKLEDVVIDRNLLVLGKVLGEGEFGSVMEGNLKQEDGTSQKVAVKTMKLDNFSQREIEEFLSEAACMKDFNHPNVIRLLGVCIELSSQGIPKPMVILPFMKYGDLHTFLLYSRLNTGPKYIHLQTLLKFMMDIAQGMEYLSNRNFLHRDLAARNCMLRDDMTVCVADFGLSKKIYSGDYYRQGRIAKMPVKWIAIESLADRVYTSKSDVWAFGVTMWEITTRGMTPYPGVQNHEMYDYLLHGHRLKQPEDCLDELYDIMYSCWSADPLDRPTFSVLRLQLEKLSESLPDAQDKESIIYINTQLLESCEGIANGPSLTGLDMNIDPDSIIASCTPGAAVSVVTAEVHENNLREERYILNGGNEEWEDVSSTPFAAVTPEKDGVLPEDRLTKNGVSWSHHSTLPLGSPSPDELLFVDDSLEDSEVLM", "test": "cell-based or functional assay"}, "[3]": {"molecular_target": "T3, human MerTK on human macrophages (human, UniProt Q12866 21-999)", "T3 sequence": "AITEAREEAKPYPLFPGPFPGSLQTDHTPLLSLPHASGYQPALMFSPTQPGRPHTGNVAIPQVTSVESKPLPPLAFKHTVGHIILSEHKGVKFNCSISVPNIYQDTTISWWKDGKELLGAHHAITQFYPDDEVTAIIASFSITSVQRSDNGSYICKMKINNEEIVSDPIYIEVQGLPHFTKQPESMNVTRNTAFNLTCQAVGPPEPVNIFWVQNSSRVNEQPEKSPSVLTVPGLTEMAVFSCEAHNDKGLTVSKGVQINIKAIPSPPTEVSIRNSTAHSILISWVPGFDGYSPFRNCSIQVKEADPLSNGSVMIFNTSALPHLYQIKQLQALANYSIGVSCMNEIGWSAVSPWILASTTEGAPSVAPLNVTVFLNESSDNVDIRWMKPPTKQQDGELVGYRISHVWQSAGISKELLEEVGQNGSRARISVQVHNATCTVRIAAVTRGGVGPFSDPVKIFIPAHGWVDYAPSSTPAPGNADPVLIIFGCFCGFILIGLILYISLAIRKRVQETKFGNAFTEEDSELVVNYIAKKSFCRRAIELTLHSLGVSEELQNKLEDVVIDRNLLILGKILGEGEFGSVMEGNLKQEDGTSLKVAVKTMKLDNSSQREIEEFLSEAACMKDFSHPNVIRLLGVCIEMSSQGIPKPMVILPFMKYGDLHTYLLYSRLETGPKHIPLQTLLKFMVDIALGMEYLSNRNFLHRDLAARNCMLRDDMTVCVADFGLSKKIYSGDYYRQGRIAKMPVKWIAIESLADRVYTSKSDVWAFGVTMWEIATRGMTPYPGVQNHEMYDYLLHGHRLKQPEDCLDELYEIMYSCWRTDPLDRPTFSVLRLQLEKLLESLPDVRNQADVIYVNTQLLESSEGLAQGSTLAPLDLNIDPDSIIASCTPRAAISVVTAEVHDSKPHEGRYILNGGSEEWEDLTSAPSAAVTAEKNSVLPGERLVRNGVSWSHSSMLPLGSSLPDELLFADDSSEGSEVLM", "test": "cell-based or functional assay"}},
  "data": [
    {"binder": "h10F7.v16 (antibody, V domains shown, Humanized, human IgG1; also called 10F7 Fully Humanized; 10F7 Humanized polished mAb) VH: EVQLVESGGGLVQPGGSLRLSCAVSGFSLSGYAMSWVRQAPGKGLEYIGVISSSGSSYYPSWAKGRFTISKDNSKNTLYLQMGSLRAEDMAVYYCARVQFYVGYAVYGYGIIDRLDLWGQGTLVTVSS VL: DIVLTQSPDSLAVSLGERATINCQSSKSVYNNNWLSWYQQKPGQPPKLLIYRASTLESGVPDRFSGSGSGTDFTLTISSLQAEDVAVYFCAGGYSSSSSANAFGGGTKVEIK", "values": [
      {"measurement": "Kd", "setting": "[1]", "value": 4.9, "unit": "nM"},
      {"measurement": "IC50 (nM), efferocytosis by mouse macrophages, Average", "setting": "[2]", "value": 0.91, "unit": "nM"},
      {"measurement": "IC50 (nM), efferocytosis by human macrophages, Average (3 Donors)", "setting": "[3]", "value": 0.41, "unit": "nM"}
    ]}
  ]
}
